Sequences and labels used below:
B1: human T-plastin, full length, wild type [human] / F-actin (filaments of α-actin) [not stated] (parent)
chain 1: MDEMATTQISKDELDELKEAFAKVDLNSNGFICDYELHELFKEANMPLPGYKVREIIQKLMLDGDRNKDGKISFDEFVYIFQEVKSSDIAKTFRKAINRKEGICALGGTSELSSEGTQHSYSEEEKYAFVNWINKALENDPDCRHVIPMNPNTDDLFKAVGDGIVLCKMINLSVPDTIDERAINKKKLTPFIIQENLNLALNSASAIGCHVVNIGAEDLRAGKPHLVLGLLWQIIKIGLFADIELSRNEALAALLRDGETLEELMKLSPEELLLRWANFHLENSGWQKINNFSADIKDSKAYFHLLNQIAPKGQKEGEPRIDINMSGFNETDDLKRAESMLQQADKLGCRQFVTPADVVSGNPKLNLAFVANLFNKYPALTKPENQDIDWTLLEGETREERTFRNWMNSLGVNPHVNHLYADLQDALVILQLYERIKVPVDWSKVNKPPYPKLGANMKKLENCNYAVELGKHPAKFSLVGIGGQDLNDGNQTLTLALVWQLMRRYTLNVLEDLGDGQKANDDIIVNWVNRTLSEAGKSTSIQSFKDKTISSSLAVVDLIDAIQPGCINYDLVKSGNLTEDDKHNNAKYAVSMARRIGARVYALPEDLVEVKPKMVMTVFACLMGRGMKRV
chain 2: not shown

In one assay the parent is B1. In words: sequential low-speed/high-speed F-actin cosedimentation assay. The conditions noted are these: with F-actin (filaments of α-actin); 5 μM actin, 2 μM plastin; read off a plot; scale: proportion of T-plastin in low-speed pellet.
Take chain 1 F191A: the response was 0.04.

The same assay, now with this note: with F-actin (filaments of α-actin); 5 μM actin, 2 μM plastin; read off a plot; scale: proportion of T-plastin in low-speed plus high-speed pellet.
For the variant chain 1 F191A, the response was found to be 0.42.

The values above are taken from PMC9478642.
